A short description of data set [1]: Serum chemistry panel in tumor-bearing mice. The format is in vivo. The conditions noted are these: n=5 mice per treatment. The method, then:
In example studies, 0.5×106 to 1×10^6 4T1 mouse mammary carcinoma cells were injected into the mammary fat pads of balb/c mice. Once the tumors were greater than 5 mm in diameter, mice were randomized and treated via tail vein catheter with PEMs (at 100 μL of 2.5 mg/mL Mb, corresponding to 50 mg/mL polymer suspensions), empty polymersomes (at equivalent polymer doses), and NIR-Mb (at equivalent myoglobin doses) (n=5 per group). NIR-Mb and PEM were reduced to their oxy-myoglobin form prior to treatment, following protocols discussed above. Mice were sacrificed at 24 h (for biodistribution/pharmacokinetic studies) or at 6-9 days (for histology and toxicology assessment following tumor efficacy studies). In both cases, EF-5 was used to stain for hypoxia and Hoechst solution for perfusion. Tumors were collected at sacrifice. Immunofluorescence (IF) was carried out to image EF-5 and Hoechst distribution throughout the tumors. The same tumor sections were also stained with hematoxylin and eosin (H&E) for immunohistologic (IHC) analysis. Blood was collected via cardiac puncture at sacrifice; plasma was isolated and stored at −80° C. for later analyses.
FIG. 21 provides results of a serum chemistry panel done for a set of tumor-bearing mice injected with each of the following treatments (n=5 mice per treatment): NIR-myoglobin (control), empty polymersomes (control), and PEMs.

Data set [2] in a line: Biodistribution and pharmacokinetics after IV injection in 4T1 tumor-bearing mice. The format is in vivo, balb/c mice. The conditions noted are these: via the kidneys and into the bladder. On the procedure:
In example studies, 0.5×106 to 1×10^6 4T1 mouse mammary carcinoma cells were injected into the mammary fat pads of balb/c mice. Once the tumors were greater than 5 mm in diameter, mice were randomized and treated via tail vein catheter with PEMs (at 100 μL of 2.5 mg/mL Mb, corresponding to 50 mg/mL polymer suspensions), empty polymersomes (at equivalent polymer doses), and NIR-Mb (at equivalent myoglobin doses) (n=5 per group). NIR-Mb and PEM were reduced to their oxy-myoglobin form prior to treatment, following protocols discussed above. […]
Fluorescence images were analyzed with Living Image) 4.2 software by measuring radiant efficiency of regions of interest (ROIs). […] The total radiant efficiency of the plasma in each capillary tube was measured in a region of interest of consistent dimensions. Plasma concentrations of PEM and empty polymersomes were calculated based on a standard curve, which was first determined by adding solutions of known concentrations of PZn3-loaded emissive polymersomes to untreated plasma and measuring fluorescence from the capillary tubes. […] Myoglobin concentration versus time was estimated based on the PZn3 fluorescence of the PEM and the IRDye800 fluorescence of NIR-Mb, respectively, with the assumption that all myoglobin remained associated with the PEM following injection.

From patent US20200138716A1, “COMPOSITIONS AND METHODS FOR INDUCING NANOPARTICLE-MEDIATED MICROVASCULAR EMBOLIZATION OF TUMORS” (Poseida Therapeutics, Inc., priority 2014, published 2020) come the findings set out here.

B1: NIR-Mb: near-infrared fluorophore (IRDye800cw NHS) covalently attached to the lysines on horse skeletal myoglobin (conjugate, UniProt P68082 2-154, looked up)
Myoglobin: GLSDGEWQQVLNVWGKVEADIAGHGQEVLIRLFTGHPETLEKFDKFKHLKTEAEMKASEDLKKHGTVVLTALGGILKKKGHHEAELKPLAQSHATKHKIPIKYLEFISDAIIHVLHSKHPGDFGADAQGAMTKALELFRNDIAAKYKELGFQG
modifications: IRDye800CW on lysines
notes: near-infrared fluorophore (IRDye800cw NHS) covalently attached to the lysines on horse skeletal myoglobin
Consider B1, for which the serum chemistry panel entry in data set [1] is reported as “no consistently elevated levels for any parameter”. Besides, the plasma clearance entry in data set [2] is given as “extremely rapid plasma clearance”.
